# According to patent US11466286B2, “Methods and compositions for conferring and/or enhancing herbicide tolerance using protoporphyrinogen oxidase or variant thereof” (FarmHannong Co., Ltd., priority 2016, dated 2022):
# Where a chain is given by its changes, count along the chain named. In names and notes the source's numbering stands.
# B1: CyPPO10 I408R + F360M: CyPPO10 (SEQ ID NO: 2) PPO variant (protein)
# chain: MIEVDVAIVGGGLSGLSVAWRLQRSAPHYSGVLLEASDRLGGNITTQAAEGFVWELGPNSFAPTPALLQLIAEVGLHSELIRGDRHLPRYIYWRGELYPLEPTRPLALATSNLLSPWGKVRAALGALGFVPPYLGSGDESVDSFFRRHLGQEVAERLVAPFVSGVYAGDPQQLSAAAAFRRIAQLEKLGGSLIAGALRLRRQQPPQPKPPAQVQMRPGELGSFREGLAALPRAIAQQLKAPLHLQTPVEAITPEPKGGYLLRSGEQTWHARSVVLATPAYQTAELVAPFQPAIARALATIPYPTVACVVLAYPAGLGRSVRPGFGVLVPRGQGIRTLGTIWSSCLFPQRTPAGWQVFTSMIGGATDPDLASLREEAIVEQVQQDLTRLLDLPAAKARLLGMKVWRRARPQYIVGYPQQWQQVTHALTQTPGLFLCSNYAEGVALGDRVEHGNRTAAAVAAYLAGGQS
# modifications: Synthetic CyPPO10
# B2: CyPPO10 A167L: CyPPO10 (SEQ ID NO: 2) PPO variant (protein)
# chain: B1 chain with A167L, M360F, R408I
# modifications: Synthetic CyPPO10
# B3: CyPPO10 I408W + F360M: CyPPO10 (SEQ ID NO: 2) PPO variant (protein)
# chain: B1 chain with R408W
# modifications: Synthetic CyPPO10
# B4: CyPPO10 F324V: CyPPO10 (SEQ ID NO: 2) PPO variant (protein)
# chain: B1 chain with F324V, M360F, R408I
# modifications: Synthetic CyPPO10
# B5: CyPPO10 F161A: CyPPO10 (SEQ ID NO: 2) PPO variant (protein)
# chain: B1 chain with F161A, M360F, R408I
# modifications: Synthetic CyPPO10
# B6: CyPPO10 F360T: CyPPO10 (SEQ ID NO: 2) PPO variant (protein)
# chain: B1 chain with M360T, R408I
# modifications: Synthetic CyPPO10
# B7: CyPPO10 L327T: CyPPO10 (SEQ ID NO: 2) PPO variant (protein)
# chain: B1 chain with L327T, M360F, R408I
# modifications: Synthetic CyPPO10
# B8: CyPPO10 Q184G: CyPPO10 (SEQ ID NO: 2) PPO variant (protein)
# chain: B1 chain with Q184G, M360F, R408I
# modifications: Synthetic CyPPO10
# B9: CyPPO10 V165C: CyPPO10 (SEQ ID NO: 2) PPO variant (protein)
# chain: B1 chain with V165C, M360F, R408I
# modifications: Synthetic CyPPO10
# B10: CyPPO10 R89A: CyPPO10 (SEQ ID NO: 2) PPO variant (protein)
# chain: B1 chain with R89A, M360F, R408I
# modifications: Synthetic CyPPO10
# B11: CyPPO10 I340T: CyPPO10 (SEQ ID NO: 2) PPO variant (protein)
# chain: B1 chain with I340T, M360F, R408I
# modifications: Synthetic CyPPO10
# B12: CyPPO13 F373L: CyPPO13 (SEQ ID NO: 4) PPO variant (protein)
# chain: MNPATPEPLNAEVVVIGAGISGLTLAWRLQQGLSARGGSPQAVLLAEASSRVGGCISTQSKDGYRWEEGPNSFTPTPALLNLIAEVGLTDQLVLADAKLPRYIYWEGALLPVPLSPAAALGSRLLSVGGKLRALQGLLGFVPPPPGHEETVRQFFRRQLGSEVAERLVEPFTSGVYAGDPDQLSAVAAFPRVAGLEERYGSLFAGALQALRQRPQPSPAAIQPPPKRGQLGNLRQGLQQLPEALAQKLGDSLRLGWRALQLKRAGELYWVGFETPEGSRWVAARQVVLALPAYEAAALLQELNPPASQLLAEILYPPVAVVALAYPQEALPQPLRGFGHLIPRSQGLRTLGTIWASCLFPERAPQGYHSFLSLLGGATDAALARRRGIPPIPALSPEERAQIAHAELSQVLLTRRAEPVYLGERLWPRAIPQYTLGHRQRIAQVQAHLASQTPGIWVCANYLDGVALGDCVRRAEALAQQLLSQV
# modifications: Synthetic CyPPO13
# B13: CyPPO13 F373T: CyPPO13 (SEQ ID NO: 4) PPO variant (protein)
# chain: B12 chain with L373T
# modifications: Synthetic CyPPO13
# B14: CyPPO13 A177L + F373V: CyPPO13 (SEQ ID NO: 4) PPO variant (protein)
# chain: B12 chain with A177L, L373V
# modifications: Synthetic CyPPO13
# B15: CyPPO13 V318M + F373M: CyPPO13 (SEQ ID NO: 4) PPO variant (protein)
# chain: B12 chain with V318M, L373M
# modifications: Synthetic CyPPO13
# B16: CyPPO13 F373H: CyPPO13 (SEQ ID NO: 4) PPO variant (protein)
# chain: B12 chain with L373H
# modifications: Synthetic CyPPO13
# B17: CyPPO13 R101A + F373M: CyPPO13 (SEQ ID NO: 4) PPO variant (protein)
# chain: B12 chain with R101A, L373M
# modifications: Synthetic CyPPO13
# B18: CyPPO13 F373N: CyPPO13 (SEQ ID NO: 4) PPO variant (protein)
# chain: B12 chain with L373N
# modifications: Synthetic CyPPO13
# B19: CyPPO13 A177C + F373M: CyPPO13 (SEQ ID NO: 4) PPO variant (protein)
# chain: B12 chain with A177C, L373M
# modifications: Synthetic CyPPO13
# B20: CyPPO13 A177L + F373M: CyPPO13 (SEQ ID NO: 4) PPO variant (protein)
# chain: B12 chain with A177L, L373M
# modifications: Synthetic CyPPO13
# B21: CyPPO13 V175L + F373M: CyPPO13 (SEQ ID NO: 4) PPO variant (protein)
# chain: B12 chain with V175L, L373M
# modifications: Synthetic CyPPO13
# B22: CyPPO13 A177L + F373T: CyPPO13 (SEQ ID NO: 4) PPO variant (protein)
# chain: B12 chain with A177L, L373T
# modifications: Synthetic CyPPO13
# B23: CyPPO13 F373V: CyPPO13 (SEQ ID NO: 4) PPO variant (protein)
# chain: B12 chain with L373V
# modifications: Synthetic CyPPO13
# B24: CyPPO13 A177I + F373M: CyPPO13 (SEQ ID NO: 4) PPO variant (protein)
# chain: B12 chain with A177I, L373M
# modifications: Synthetic CyPPO13
# System: CyPPO10
# Assay: PPO enzyme activity and IC50 by herbicides, CyPPO10 wild type and variants (MBP-PPO fusion)
# Type: biochemical, Thermosynechococcus elongatus BP-1
# Conditions: PPO enzyme activity of CyPPO10 protein, wild type = 100
# Experimental: (§1) The enzyme activities of PPO protein and PPO protein variants were examined, and inhibition assay by PPO-inhibiting herbicides was conducted. It was confirmed that the PPO protein has low water-solubility, but in case of being expressed as a fusion protein with MBP (maltose binding protein) (MBP-PPO), the PPO protein is able to be stably expressed as water-soluble form. Therefore, the wild type and variant proteins which were expressed in the form of fusion protein with MBP were used in the present test (refer to FIG. 4).
# (§2) In order to express wild type genes and mutant genes of CyPPO10 and CyPPO13 (refer to Example 1 and Example 4), those genes were introduced to pMAL-c2X vector (refer to FIG. 5) respectively, and then cloned to BL21 (DE3) E. coli (CodonPlus).
# (§3) The enzyme activity of the purified wild type protein and variant proteins of CyPPO10 and CyPPO13 was measured by the following process.
# (§4) At first, a substrate of PPO protein, Protoporphyrinogen IX was synthesized. This process was performed in the space where nitrogen gas is streamed. 6 mg of protoporphyrin IX was dissolved in 20% (v/v) EtOH 20 ml, and stirred under dark condition for 30 minutes. The obtained protoporphyrinogen IX solution was put into a 15 ml screw tube in an amount of 800 and flushed with nitrogen gas for 5 minutes. To this, 1 g of sodium amalgam was added and vigorous shaking was performed for 2 minutes. The lid was open to exhaust hydrogen gas in the tube. Thereafter, the lid was closed and incubated for 3 minutes. The […] was filtered using syringe and cellulose membrane filter. To 600 μl of the obtained […], 2M MOPS [3-(N-morpholino)propanesulfonic acid] was added in an amount of approximately 300 thereby adjusting pH to 8.0. To determine the enzyme activity of PPO protein, a reaction mixture was prepared with the following composition (based on 10 ml): 50 mM Tris-Cl (pH 8.0); 50 mM NaCl; 0.04% (v/v) Tween 20; 40 mM glucose (0.072 g); 5 units glucose oxidase (16.6 mg); and 10 units catalase (1 μl).
# (§5) Two hundred microliters (200 μl) of reaction mixture containing a purified PPO protein were placed in 96 well plates, and preincubated for 30 min at room temperature to reduce the oxygen concentration by the reaction of glucose oxidase-catalase. The mineral oil was layered and then the reaction was initiated by adding the substrate, […], to a final concentration of 50 μM. The reaction proceeded at room temperature for 30 min and the fluorescence of protoporphyrin IX was measured using Microplate reader (Sense, Hidex) (excitation: 405 nm; emission: 633 nm). To calculate the PPO enzyme activity, protoporphyrinogen IX solution was kept open in the air to oxidize the solution (overnight). To this, 2.7N HCl was added, and the absorbance at 408 nm was measured. A standard curve was generated using standard protoporphyrin IX, and the PPO activity was measured by calibration of protoporphyrin IX using the standard curve of protoporphyrin IX.
# (§6) The final concentration of each herbicide was as follows: […]
row,Molecule,Activity (%)
1,B1,5
2,B2,95
3,B3,5
4,B4,59
5,B5,92
6,B6,85
7,B7,84
8,B8,97
9,B9,99
10,B10,83
11,B11,19

# System: CyPPO13
# Assay: PPO enzyme activity and IC50 by herbicides, CyPPO13 wild type and variants (MBP-PPO fusion)
# Type: biochemical, Synechococcus sp. JA-3-3Ab
# Conditions: PPO enzyme activity of CyPPO13 protein, wild type = 100
# Experimental: as §1, §2, §3, §4, §5, §6
row,Molecule,Activity (%)
1,B12,82
2,B13,81
3,B14,49
4,B15,72
5,B16,26
6,B17,55
7,B18,40
8,B19,77
9,B20,75
10,B21,93
11,B22,62
12,B23,83
13,B24,75
